Earlier results, collected in paper PMC11769735.
Read-outs that look alike come from different tables or passages of the source. One block for each substance: values may come before it.

How the values were obtained:
[1] = molecular target: ADP-actin filament barbed end (UniProt P68133)
G-actin [2] = molecular target: G-actin (UniProt P68133)
G-actin [3] = molecular target: G-actin (UniProt P68133); remark: listed apart in the source

Kd [1]: 0.013 µM
Substance: Twinfilin (from UniProt Q91YR1)

Kd (G-actin [2]): 0.05 µM
Substance: Twinfilin C-ADF-H (from UniProt Q91YR1)

Kd (G-actin [3]): 0.7 µM
Substance: Twinfilin N-ADF-H (from UniProt Q91YR1)
